Assay results from patent publication US10464978B2, “Peptides and combination of peptides for use in immunotherapy against ovarian cancer and other cancers” (immatics biotechnologies GmbH, priority 2015, dated 2019).

Biological target: HLA-A*02:01 (Homo sapiens, UniProt P04439, D140Y/D185E/D98H/E176V/E277Q/G131W/G231S/I119V/I121R/I166T/I218V/L300P/L318F/N151K/N90K/P208A/P217A/Q86G/Q94H/R138H/R169H/T345S)
Assay: MHC binding assay: UV-ligand exchange with beta2m ELISA (peptide exchange yield)
Conditions: binding to HLA-A*02:01
In short: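 Values give exchange yield, measured by β2m ELISA: 100-fold-diluted monomers bound to streptavidin plates (1h, 37° C), probed with HRP anti-β2m at 2 ug/ml and read at 450 nm after TMB. Monomers came from UV-triggered cleavage of a photolabile peptide and exchange for the test peptide.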

Substance | Peptide exchange (MHC class I binding score, peptide exchange yield)
111 (YVWGFYPAEV; listed as Homo sapiens) [compound 111] | “+++” (≥50 = +++)
351 (SLIPNLRNV; listed as Homo sapiens) [compound 351] | “+++” (≥50 = +++)
275 (YLVYILNEL; listed as Homo sapiens) [compound 275] | “++” (≥20% = ++)
166 (YLNHLEPPV; listed as Homo sapiens) [compound 166] | “+++” (≥50 = +++)
106 (LLYDAVHIVSV; listed as Homo sapiens) [compound 106] | “+++” (≥50 = +++)
376 (AMFESSQNVLL; listed as Homo sapiens) [compound 376] | “++” (≥20% = ++)
150 (RLWEEGEELEL; listed as Homo sapiens) [compound 150] | “+++” (≥50 = +++)
93 (LLQAIKLYL; listed as Homo sapiens) [compound 93] | “++” (≥20% = ++)
388 (SLTIDGIRYV; listed as Homo sapiens) [compound 388] | “+++” (≥50 = +++)
432 (TLIEESAKV; listed as Homo sapiens) [compound 432] | “++” (≥20% = ++)
385 (SLLEQGLVEA; listed as Homo sapiens) [compound 385] | “++” (≥20% = ++)
90 (TLLQIIETV; listed as Homo sapiens) [compound 90] | “+++” (≥50 = +++)
262 (LLWGDLIWL; listed as Homo sapiens) [compound 262] | “+++” (≥50 = +++)
362 (TLYGLSVLL; listed as Homo sapiens) [compound 362] | “+++” (≥50 = +++)
236 (GLLEAKVSL; listed as Homo sapiens) [compound 236] | “+++” (≥50 = +++)
591 (SMAELDIKL; listed as Homo sapiens) [compound 591] | “+++” (≥50 = +++)
544 (LLWDVPAPSL; listed as Homo sapiens) [compound 544] | “+++” (≥50 = +++)
336 (ILLTAIVQV; listed as Homo sapiens) [compound 336] | “+++” (≥50 = +++)
337 (HLLSELEAAPYL; listed as Homo sapiens) [compound 337] | “++++” (≥75% = ++++)
170 (RLQETLSAA; listed as Homo sapiens) [compound 170] | “+++” (≥50 = +++)
138 (YQYPRAILSV; listed as Homo sapiens) [compound 138] | “+++” (≥50 = +++)

Substance | Peptide exchange (MHC class I binding score, peptide exchange yield)
477 (ALLPASGQIAL; listed as Homo sapiens) [compound 477] | “+++” (≥50 = +++)
313 (VLFDDELLMV; listed as Homo sapiens) [compound 313] | “+++” (≥50 = +++)
427 (ALLPLSPYL; listed as Homo sapiens) [compound 427] | “+++” (≥50 = +++)
480 (ALLEDSCHYL; listed as Homo sapiens) [compound 480] | “+++” (≥50 = +++)
52 (FLLAHGLGFLL; listed as Homo sapiens) [compound 52] | “++++” (≥75% = ++++)
484 (SLIEKVTQL; listed as Homo sapiens) [compound 484] | “+++” (≥50 = +++)
2 (SLLEADPFL; listed as Homo sapiens) [compound 2] | “+++” (≥50 = +++)
184 (YLMDINGKMWL; listed as Homo sapiens) [compound 184] | “+++” (≥50 = +++)
528 (SVAEGRALMSV; listed as Homo sapiens) [compound 528] | “+++” (≥50 = +++)
603 (FLIEPEHVNTV; listed as Homo sapiens) [compound 603] | “++” (≥20% = ++)
363 (KVLDVSDLESV; listed as Homo sapiens) [compound 363] | “++” (≥20% = ++)
94 (YLIDIKTIAI; listed as Homo sapiens) [compound 94] | “++” (≥20% = ++)
226 (MLYVVPIYL; listed as Homo sapiens) [compound 226] | “++” (≥20% = ++)
257 (SIFSAFLSV; listed as Homo sapiens) [compound 257] | “+++” (≥50 = +++)
381 (FIDEAYVEV; listed as Homo sapiens) [compound 381] | “++” (≥20% = ++)
30 (LILDWVPYI; listed as Homo sapiens) [compound 30] | “+++” (≥50 = +++)
198 (KTINKVPTV; listed as Homo sapiens) [compound 198] | “+++” (≥50 = +++)
377 (FLLDSSASV; listed as Homo sapiens) [compound 377] | “++” (≥20% = ++)
508 (ILAQEQLVVGV; listed as Homo sapiens) [compound 508] | “+++” (≥50 = +++)
266 (KITDTLIHL; listed as Homo sapiens) [compound 266] | “+++” (≥50 = +++)
585 (ALWDLAADKQTL; listed as Homo sapiens) [compound 585] | “++++” (≥75% = ++++)

Substance | Peptide exchange (MHC class I binding score, peptide exchange yield)
601 (SAFPFPVTV; listed as Homo sapiens) [compound 601] | “+++” (≥50 = +++)
227 (ALMNTLLYL; listed as Homo sapiens) [compound 227] | “++” (≥20% = ++)
70 (GLLDYPVGV; listed as Homo sapiens) [compound 70] | “+++” (≥50 = +++)
345 (VIWKALIHL; listed as Homo sapiens) [compound 345] | “+++” (≥50 = +++)
502 (RLLAQVPGL; listed as Homo sapiens) [compound 502] | “+++” (≥50 = +++)
149 (NLLELFVQL; listed as Homo sapiens) [compound 149] | “+++” (≥50 = +++)
511 (FLDPYCSASV; listed as Homo sapiens) [compound 511] | “++” (≥20% = ++)
524 (ALIENLTHQI; listed as Homo sapiens) [compound 524] | “++” (≥20% = ++)
387 (ALFQATAEV; listed as Homo sapiens) [compound 387] | “++++” (≥75% = ++++)
13 (YLMDESLNL; listed as Homo sapiens) [compound 13] | “+++” (≥50 = +++)
465 (QLCDLNAEL; listed as Homo sapiens) [compound 465] | “+++” (≥50 = +++)
199 (ALQDVPLSSV; listed as Homo sapiens) [compound 199] | “+++” (≥50 = +++)
144 (YIMEPSIFNTL; listed as Homo sapiens) [compound 144] | “+++” (≥50 = +++)
192 (KMLDGASFTL; listed as Homo sapiens) [compound 192] | “+++” (≥50 = +++)
431 (SLVNVVPKL; listed as Homo sapiens) [compound 431] | “++” (≥20% = ++)
7 (SLVGLLLYL; listed as Homo sapiens) [compound 7] | “++++” (≥75% = ++++)
429 (GLVNDLARV; listed as Homo sapiens) [compound 429] | “++” (≥20% = ++)
395 (ALALGGIAVV; listed as Homo sapiens) [compound 395] | “++++” (≥75% = ++++)
280 (VLPDPEVLEAV; listed as Homo sapiens) [compound 280] | “+++” (≥50 = +++)
